Measurements published in paper PMC3361975 (Biochemistry, 2012).

Target: the molecule itself
Experiment: SEC

Protein	stoichiometry N	binding result
17X-PTDH-R301A (phosphite dehydrogenase from Pseudomonas stutzeri WM88, 17X background, Arg301Ala) (enzyme, UniProt O69054 1-336, looked up) MLPKLVITHRVHEEILQLLAPHCELITNQTDSTLTREEILRRCRDAQAMMAFMPDRVDADFLQACPELRVIGCALKGFDNFDVDACTARGVWLTFVPDLLTVPTAELAIGLAVGLGRHLRAADAFVRSGKFRGWQPRFYGTGLDNATVGFLGMGAIGLAMADRLQGWGATLQYHAAKALDTQTEQRLGLRQVACSELFASSDFILLALPLNADTLHLVNAELLALVRPGALLVNPCRGSVVDEAAVLAALERGQLGGYAADVFEMEDWARADRPQQIDPALLAHPNTLFTPHIGSAVRAVALEIERCAAQNILQALAGERPINAVNRLPKANPAAD	2	–
17X-PTDH (thermostable phosphite dehydrogenase mutant TS-PTDH with the additional E175A mutation) (enzyme, Pseudomonas stutzeri WM88, UniProt O69054 1-336, looked up) MLPKLVITHRVHEEILQLLAPHCELITNQTDSTLTREEILRRCRDAQAMMAFMPDRVDADFLQACPELRVIGCALKGFDNFDVDACTARGVWLTFVPDLLTVPTAELAIGLAVGLGRHLRAADAFVRSGKFRGWQPRFYGTGLDNATVGFLGMGAIGLAMADRLQGWGATLQYHAAKALDTQTEQRLGLRQVACSELFASSDFILLALPLNADTLHLVNAELLALVRPGALLVNPCRGSVVDEAAVLAALERGQLGGYAADVFEMEDWARADRPQQIDPALLAHPNTLFTPHIGSAVRAVRLEIERCAAQNILQALAGERPINAVNRLPKANPAAD	–	binds
